Data taken from the nanobody polyreactivity screen of Harvey et al. (2022).

Assay: yeast display, Sf9 membrane polyspecificity reagent, FACS + sequencing; frameworks hold sequencing errors
How it was run: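 A nanobody's polyreactivity label depends on the gate it was sorted from. Yeast display cells were stained with 10% biotinylated, detergent-solubilized Sf9 membrane reagent for 1 hour at 4 °C, enriched on streptavidin microbeads and sorted by FACS. The low and high (top ~1%) gates were set on anti-HA fluorescence for expression and streptavidin fluorescence for reagent binding.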

Sequence | polyreactivity (PSR sort gate)
QVQQQESGGGLVQAGGSLRRSCAASGSIFSHWAMGWYRQTPGKERELVASITAGGNNNYADSVKGRFTISRDNAKNTVYLPMNSLKPEDTAVYYCNRRYPGPDSFEHYYYYRYDYWGQGTQVTVSS | low polyreactivity
QVQLVESGGGIVQAGGSLRLSCAASGITFTVYAMGWYRQAPGKERELVAAITSTGSTNYADSVKGRFTISRDNAKNTVYLQMISLKPEDTAVYYCAADRQITVYAYDYWGHGTQVTVSS | low polyreactivity
QVPLVESGGGLVQSGGSLRLSCAASGSTCSRNAMGWYREAPGKERELVAAINDSGGSTYYADSVKGRFTISRDMAKNTVYLQMNSLKPEDTAVYYCNAVSPYYWDFRYDYWGQGTQVTVSS | high polyreactivity
QVQLQDSCGGLVQAGGSLRLNCATSGTIFVLWYMGWYRQAPGKERELVATINHGANTYSADSVKGRFTINRDNGNSTVYLQMNSLQPEDTAVYYCAVYAIIVWGLGYWGQGTQVTVSS | high polyreactivity
QVQLVESGGGLVQAGGSLRLSCAASGRISESNDMGWSRQAPWKERELVAAISSSGGSTYYADSVKGRFTISRDNAKNTVYLQMNSLKPEDTAVYYCNAVYYRTVLKIGVYEYDYWGQGTQVTVSS | low polyreactivity
QVQLVESGGGLVQAGGSLRLSSAASGFTFEENAMGWYRQAPGKERELVAAINWSGGNTYYADSVKGRFTISRDNAKNTVYLQMNSLKPEDTAVYYCAAVSTRYYYSVGPYYGYDYWVQGTQVTVSS | high polyreactivity
QVQLVESGGGLVQAGGSLRLSCAASGRTFVGNGKGWYRLAPGKERELLASISFSGGAGTYYADSVKGRFTISRDNAKYTVYLQMNSLKPEDTAVYYCAKRYVTPTYRRYYWGPGTQVTVSS | high polyreactivity
QVQLVESGGGLVQAGGSLRLSCAASGSIFNKNAMGWYRQAPGKERELVAAITSSGSSTYYADSVKGRFTISRDNAKNTVYLQMNSLKPEDTAVYYCNAQYGIRPRAGRTRQKYDYWGQGTQVTVSS | high polyreactivity
QVQLVESGGGLVQAGGSLRLSCAASGFTFAGYAMGWYRQAPGKERELVAGIRSSGARTYYADSVKGRFTISRDNAKNTVYLQMNSLKPEDTAVYYCAKTDGFYRGYGYWGQGTQVTVSS | low polyreactivity
QVQLVESGGGLVQAGGSLRVSCAASGNIFVYNAMGWYRQAPGKERELVAAIDSGGSTYYADSVKGRFTISRDNAKNTVYLQMNSLKPEDTAVYYCAADYYSTYRTIYYYWGQGTQVTVSS | low polyreactivity
QVQLVESGGGVVQAGGSLRLSCAASGSIFPYNAMGWYRPAPGKERELVAVITSSGGSTYYADSVKGRFTISRDNAKNTVYLQMNSLKPEDTAVYYVAARGYNYYFGGYDYWGQGTQVTVSS | low polyreactivity
QVQLVESGGGLVQAGGSLRLSCAASGRIFGLNAMGWYRQAPGKERELVAAITGSVGSTYYADSVKGRFTISRDNAKNTVYLQMNSLKPEDTAVYYCYAEYDSRRSSYYRHFNYWGQGTQVTVSS | low polyreactivity
QVQLVESGGGLVQAGGSLRLSCAASGNTFWGNAMGWYRQAPGKERELVATISASSGSTYYADSVKGRFTISRDNAKNTVYLQMNSLKPEDTAVYYCAKTALRYLKHGRTKGDYWGQGTQVTVSS | low polyreactivity
QVQLVESGGGLVQAGGSLRLSCAASGRTFFWYAMGWYRQAPGKERDLVAAIRGAGRTNYADSVKGRFTISRYNAKNTVYLQMNSLKPEDTAVYYCAAQHYPWRRYDYWGQGTQVTVSS | high polyreactivity
QVQLVESGGGLVQAGGSLRLSCAASGSIFAAYAKGWYIQAPGKERELVAAISDRGGSTYYADSVKGRFTISRDNSKITVYLQMNSLKPEDTAVYYCATSVFDVRGGPFYYWGQGTQVNVSS | high polyreactivity
QVQLVESGGGLVQAGRSLRLSCAASGRIFYPYAMGWYRQAPGKERELVAAIRWSSGNTRYADSVKGRFTISRDNAKNTVYLQMNSLKPEDTAVYYCAADTTVFFYRYDYWGQGTQVTVSS | high polyreactivity
QVQLVESGGGLVQARGSLRLSCAASGITFRYYAMGWYRQAPGKERELVASISWSGGSTYYADSVKGRFTISRDNAKNTVYLQMNSLKPEDTAVYYCAADILTFWYRYYYWGQGTQVTVSS | high polyreactivity
QVQLVESGGGLVQAGGTLRLSCADSGSTFTYNAMGWYRQAPGKERELVASISSGTTTYYADSVKGRFTISRDNAKNTVYLQMNSLKPEDTAVYYCAVDSWSRVQGWLAHNYDYWGQGTQVTVSS | low polyreactivity
QVQLVESGGGLVQAGGSLPLSCAASGSIFDGYAMGWYSQAPGKDRELDAGISKSGGRTYYADSVKGRFTISRDNAKNTVYLQMNSLKPEDTAVYYCATPGIRYDRVYRYDYWGQGTQVTVSS | high polyreactivity
QVQLVESGGGLVQAGGSLRLSCAASGYTFFFNVMGWYRQAPGKERELVAAISYSGGSTNYADSVKGRFTISRDNAKNTVYLQMNSLKPEDTAVYYCNARTVSRNGYQDDYWGQGTQVTVSS | low polyreactivity
QVQLVESGGGLVQAGGSLRLSCAASGSIFRYNVMGWYRQAPGKERELVAAISYTGGRKYYADSVKGRFTISRDNAKNTVYLQMNRLKPEETAVYDCAALGWSGRYRYDYWGQGTQVTVAS | high polyreactivity
QVQLVESGGGLVQAGGSLRLSCDASGSIFDGYGMGWYRQAPGKERELVASITCNDGSTYYADSVKGRFTISRDNANNTFYLQMNSLKPEDTAVYYCASDQWGYEYDYWGQGTQVTVSS | low polyreactivity

Sequence | polyreactivity (PSR sort gate)
QVQLVESGGGLVQAGGSLRLSCAASGRIFDPYAMGWYRQAPGKERELVASISWSGGRTYYADSVKGRFTISRDNAKNTVYLQMNSLKPEDTAVYYCAARQWYRYKVRFDYWGQGTQVTVSS | high polyreactivity
QVQLVESGGGLVQAGGSLRLSCAASRRIFWSNAMGWYRQEPGKERELVAAISRRGGRTYYADSVKGRFTISLDNAKNSVYLQMNSLKPEDTAVYYCAADGTADYDYWGQGTQVTVSS | high polyreactivity
QVQLEESGGGLVQEGGSLRLSCAASGRTFYYYDMGWYRQAPGKERELVAAITWSGGSTYYADSVKGRFTISRDNAKNTVYLQRNCLKREDTAVYYCAADVTYSRYEYWGQGSQVTVSS | low polyreactivity
QVQLVESGGGLVQAGGSLRLSCAPSGRIFFYYVMGWYRQAPGKERELVAAITRSGGSTYYADSVKGRFTISRDNAKNTVYLQMNSLKPEDTAVYYCAVGDGFEFDWGQGTQVTVSS | low polyreactivity
QVQLVESGGGLVQAGGSLRLSCAASGITLDDYAMGWDRQARGKERELVAAISWSGGSTYYADSVKGRFTISRDNAKNTDYLQMNSLKPADTAVYYCAADPPFRYDYWGQGTQVTVSS | low polyreactivity
QVQLVESGGGLVQAGGSLRLSCAASGLNIRYYAMGWYRQAPGKERELVAAISYNGGSTYYADSVKGRFTISRDNAKNTVYLQMNSLKPEDTAVYYCAARLYGRYGYWGQGTQVTVSS | high polyreactivity
QVQLVESGGGLVQAGGSLRLSCAASGSIFSYYAMGWYRQAPGKERELVAAITISGSSTYYADSVKGRFTISRDNAKNTVYLQMNSLKPEDTAVYYCNVVPLGSKNSVSHYYWGQGTQVTVSS | high polyreactivity
QVQLVESGGGLVQAGGSLRLSCAASRSIFSIYAMGWYRQAPGKERELVAAITWGGGSTYYADSVKGRFTISRDNAKNTVYLQMNSLKPEDTALYYCAADSLTWYGTYYYWGQGTQVTVSS | high polyreactivity
HVQLVESGGGLVQAGGSLRLSFAASGRIFTHNAMGLYRKAPGKERELVAAITSGGRTTYADSVKGRFTISRDNAKNTVYLQMNSLKPEDTAVYYCNADTGLGSLDFDKRDYWGQGTQVTVSS | low polyreactivity
QVQLVESGVGLVQAGGSLRLSCAASGFIFYYYAMGWYRQAPGKERELVAAISTDGGSTYYADSVKGRFTISRDNAKNTVYLQMNSLKPEDTAVYYCNAPYYGWGYWPLEYIRYEYWGQGTQVTVST | low polyreactivity
QVQLVESGGGLVQAGGSLRLSCAASGYTFYSYAMGWYRQEPGKERELVAAIRTGGGTIYADSVKGRFTISRDNAKNTVYLQMNSLKPEDTAVYYCAAESGYPVYTYVSSGDYWGQGTQVTVSS | low polyreactivity
QVQLVESGGGLVQAGGSLRLSCAASGRIFPYYAMGRYRQAPGKERELVARITRNGGTTYYADSVKGRFTISRDNAKNTVYLQMNSLKPEDTAVYYCAATYSVPYYRSWPEYDYWGQGTQVTVSS | high polyreactivity
QVQLVESGGGLVQAGGSLRLSCAASGFTFFSYAMGWYRQAPGKERELVATITWSGGTYYADSVKGRFTISRDNAKNTVYVQMNSLKPEDTAVYYCNARRHYRRYSYRHNYWGQGTQVTVSS | high polyreactivity
QVQLVESGGGLDQAGGSLRLSCSASGITFKSYAMGWYTQSPGKEREVVAAISRRGGSTYYADSVKGRFTISRDNAKNTVYLQMNSLKQEDTAVYFFAADSGREPKGPSRLTYWGQGTQVTVSS | high polyreactivity
QVQLVESGGGLVQAGGTLRLSCAASGSIFPYYVMGWYRQAPGKERELVAAISTSDGSTYADSVKGRFTISRDNAKNTVYFQMNSLKPEDTAVYYCAVANVYYEGYDYWGQGTQVTVSS | low polyreactivity
QVQLVESGGGLVQAGGSLRLSCAASGSIFRSYAMGWYRQAPGNERELVAAITRSGGSTYYADSVKGRFTISRDNAKNTVYLQMNSLKPEDTAVYYCAAEYYSYTWGWGHGYWGQGTQVTVSS | high polyreactivity
QVQLVESGGGLVQAGGSLRLSCAASGRIFSLYAMGWYRQAPGKEREFVAAISKSSGGTYYADSVKGRFTISRDNAKNTVYLQMNSLKPKDTAVYYCNARFVIGWVRKLDYWGQGTQVTVSS | high polyreactivity
QVQLVESGGGLVQAGGSLRISCAASGITFYANTMGWYRQAPGKEREFVAAISGIGGSTYYADSVKGRFAISRDNAKNTVYLQMNSLKPEDPAVYYCNADVYYFLFGTFDYWGQGTQVTVSS | low polyreactivity
QVQLVESGGGLVQAGGSLRLSCAASGSTITHNAMGWYRQAPGKERELVATISSGGSTNYADSVKGRFTISRDNAKNTVYLQMNRLKPEDTAVYYCAKPRYRSHVVYGPASGDDYWGQGTQVTVSS | low polyreactivity
QVQLVESGGGLVQAGGSLRLSCAASGSIYGYTMGWYRQAPGKERELVAAINRRADRTYYADSVKGRFTISRDNAKNTVYLQMNSLKPEDTAVYYCNKGGWYTLGYCGQGTQVTVSS | high polyreactivity
QVQLQESGGVLVQAGGSLRQSYAASGYIFPSLAMGWYRQAPGKEREFVAAIGRGSTNNYADSVKGRFTISRDNAKNTAYQQMNSLKPEDTAVYYCAAAASPLTRHLYWGQGTQVTVSS | low polyreactivity
